In patent US20140248269A1 (NATIONAL CEREBRAL AND CARDIOVASCULAR CENTER, published 2014):

Biological target: T1, natriuretic peptide receptor GC-A (human, UniProt P16066 33-1061)
T1 sequence (looked up): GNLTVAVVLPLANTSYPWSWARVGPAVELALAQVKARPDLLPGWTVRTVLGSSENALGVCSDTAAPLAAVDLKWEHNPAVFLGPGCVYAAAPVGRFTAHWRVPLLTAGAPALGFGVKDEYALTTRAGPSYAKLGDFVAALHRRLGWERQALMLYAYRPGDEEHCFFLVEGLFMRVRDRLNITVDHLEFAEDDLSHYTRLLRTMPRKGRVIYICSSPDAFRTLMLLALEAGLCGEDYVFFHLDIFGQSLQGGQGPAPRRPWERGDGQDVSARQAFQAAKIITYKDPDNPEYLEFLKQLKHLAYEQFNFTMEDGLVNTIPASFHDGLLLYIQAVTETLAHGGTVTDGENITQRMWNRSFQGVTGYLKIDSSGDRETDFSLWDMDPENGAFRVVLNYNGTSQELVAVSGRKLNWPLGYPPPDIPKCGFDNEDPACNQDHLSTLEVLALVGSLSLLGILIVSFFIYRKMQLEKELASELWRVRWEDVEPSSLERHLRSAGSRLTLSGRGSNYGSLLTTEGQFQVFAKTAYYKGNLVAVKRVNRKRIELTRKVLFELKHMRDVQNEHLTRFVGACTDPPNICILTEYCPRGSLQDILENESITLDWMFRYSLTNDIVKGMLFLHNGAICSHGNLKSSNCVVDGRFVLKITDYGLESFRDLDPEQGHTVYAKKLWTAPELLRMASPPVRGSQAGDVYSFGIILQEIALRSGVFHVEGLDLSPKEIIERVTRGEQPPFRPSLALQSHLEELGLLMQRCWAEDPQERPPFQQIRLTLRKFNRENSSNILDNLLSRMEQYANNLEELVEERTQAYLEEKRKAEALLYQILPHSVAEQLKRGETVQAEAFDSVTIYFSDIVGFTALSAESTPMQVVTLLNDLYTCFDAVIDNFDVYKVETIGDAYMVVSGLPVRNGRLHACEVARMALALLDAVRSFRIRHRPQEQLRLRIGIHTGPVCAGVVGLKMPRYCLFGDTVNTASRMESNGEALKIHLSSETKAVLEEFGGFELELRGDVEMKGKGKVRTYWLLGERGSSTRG
Experiment: cell-based or functional assay

Binder: SLRRSSCFGLKLDRIGAQSGLGCNSFRY [LKL-ANP (mutant in which the amino acids at positions 10 to 12 of hANP are replaced with LKL)]
- ratio of suppression of EMT induced by TGF-β1 in terms of E-cad/Ncad (A549 cells, 1 µM): 52.9%
